According to the supplement of paper PMC9112550, “Optimization of the antimicrobial peptide Bac7 by deep mutational scanning” (BMC Biology, 2022):

Test system: Escherichia coli TOP10
Assay: shrunken log2 fold change of peptide-encoding DNA abundance (4.5 h post-induction vs induction); higher = less antimicrobial activity (less host growth inhibition)
Conditions: time post-induction: 4.5 h; library: site-saturation at positions 5, 18, 19, 20
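Also: peptides expressed intracellularly from a pBAD plasmid library in pooled LB shake-flask culture, induced with 0.3% L-arabinose, DNA abundance read by NGS, three biological replicates, DESeq2 with apeglm shrinkage.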

First: RRIRPRPPRLPRPRPRPSHRPRP
Second: RRIRPRPPRLPRPRPRPSHSPRP
The “shrunken log2 fold change” value of the first is higher: 0.0628 for the first, -0.368 for the second.

RRIRPRPPRLPRPRPRPSKEPRP and RRIRPRPPRLPRPRPRPSKFPRP are within 0.2 log units of each other in “shrunken log2 fold change” value: -0.374 for the first, -0.494 for the second.

Going from RRIRPRPPRLPRPRPRPSLCPRP to RRIRPRPPRLPRPRPRPSMHPRP, the “shrunken log2 fold change” value rises from -0.0173 to 0.828.

First: RRIRPRPPRLPRPRPRPSMPPRP
Second: RRIRPRPPRLPRPRPRPSMYPRP
The “shrunken log2 fold change” value of the first is higher: -0.208 for the first, -0.676 for the second.

First: RRIRPRPPRLPRPRPRPSNPPRP
Second: RRIRPRPPRLPRPRPRPSNRPRP
The “shrunken log2 fold change” value of the first is higher: -0.0794 for the first, -0.783 for the second.

Going from RRIRPRPPRLPRPRPRPSPEPRP to RRIRPRPPRLPRPRPRPSQHPRP, the “shrunken log2 fold change” value falls from -0.0109 to -0.278.

First: RRIRPRPPRLPRPRPRPSSIPRP
Second: RRIRPRPPRLPRPRPRPSVEPRP
The “shrunken log2 fold change” value of the first is lower: -0.824 for the first, -0.00032 for the second.

Compared with RRIRPRPPRLPRPRPRPSVSPRP, RRIRPRPPRLPRPRPRPSVWPRP is higher in “shrunken log2 fold change” value: -0.504 for the first, -0.0905 for the second.

Compared with RRIRPRPPRLPRPRPRPSWEPRP, RRIRPRPPRLPRPRPRPSYGPRP is lower in “shrunken log2 fold change” value: 0.245 for the first, -0.2 for the second.

Compared with RRIRPRPPRLPRPRPRPTCHPRP, RRIRPRPPRLPRPRPRPTDIPRP is lower in “shrunken log2 fold change” value: 1.02 for the first, -0.241 for the second.

RRIRPRPPRLPRPRPRPTEHPRP and RRIRPRPPRLPRPRPRPTFMPRP are within 0.2 log units of each other in “shrunken log2 fold change” value: -0.1 for the first, 0.0861 for the second.

RRIRPRPPRLPRPRPRPTFPPRP and RRIRPRPPRLPRPRPRPTGFPRP are within 0.2 log units of each other in “shrunken log2 fold change” value: 0.025 for the first, 0.0273 for the second.

Compared with RRIRPRPPRLPRPRPRPTHDPRP, RRIRPRPPRLPRPRPRPTHEPRP is higher in “shrunken log2 fold change” value: 0.258 for the first, 0.466 for the second.

RRIRPRPPRLPRPRPRPTHGPRP and RRIRPRPPRLPRPRPRPTHPPRP are within 0.2 log units of each other in “shrunken log2 fold change” value: 0.478 for the first, 0.653 for the second.

RRIRPRPPRLPRPRPRPTLVPRP and RRIRPRPPRLPRPRPRPTLYPRP are within 0.2 log units of each other in “shrunken log2 fold change” value: 0.114 for the first, 0.221 for the second.

Going from RRIRPRPPRLPRPRPRPTMIPRP to RRIRPRPPRLPRPRPRPTNFPRP, the “shrunken log2 fold change” value rises from -0.239 to 0.221.

Compared with RRIRPRPPRLPRPRPRPTNQPRP, RRIRPRPPRLPRPRPRPTPFPRP is higher in “shrunken log2 fold change” value: -0.182 for the first, 0.269 for the second.

Compared with RRIRPRPPRLPRPRPRPTPGPRP, RRIRPRPPRLPRPRPRPTQIPRP is lower in “shrunken log2 fold change” value: 0.533 for the first, 0.13 for the second.

RRIRPRPPRLPRPRPRPTSAPRP and RRIRPRPPRLPRPRPRPTTTPRP are within 0.2 log units of each other in “shrunken log2 fold change” value: 0.156 for the first, 0.142 for the second.

Going from RRIRPRPPRLPRPRPRPTVGPRP to RRIRPRPPRLPRPRPRPTYAPRP, the “shrunken log2 fold change” value falls from 0.555 to 0.133.

Going from RRIRPRPPRLPRPRPRPTYPPRP to RRIRPRPPRLPRPRPRPVCEPRP, the “shrunken log2 fold change” value rises from -0.137 to 0.227.

RRIRPRPPRLPRPRPRPVCQPRP and RRIRPRPPRLPRPRPRPVDGPRP are within 0.2 log units of each other in “shrunken log2 fold change” value: -0.1 for the first, 0.0909 for the second.

First: RRIRPRPPRLPRPRPRPVDIPRP
Second: RRIRPRPPRLPRPRPRPVESPRP
The “shrunken log2 fold change” value of the first is lower: -0.288 for the first, -0.0537 for the second.

Going from RRIRPRPPRLPRPRPRPVFYPRP to RRIRPRPPRLPRPRPRPVGRPRP, the “shrunken log2 fold change” value rises from -0.316 to 0.0963.

RRIRPRPPRLPRPRPRPVHLPRP and RRIRPRPPRLPRPRPRPVIAPRP are within 0.2 log units of each other in “shrunken log2 fold change” value: 0.179 for the first, 0.0792 for the second.

RRIRPRPPRLPRPRPRPVKIPRP and RRIRPRPPRLPRPRPRPVKVPRP are within 0.2 log units of each other in “shrunken log2 fold change” value: 0.154 for the first, 0.161 for the second.

Compared with RRIRPRPPRLPRPRPRPVLCPRP, RRIRPRPPRLPRPRPRPVLHPRP is lower in “shrunken log2 fold change” value: 0.282 for the first, -0.1 for the second.

Going from RRIRPRPPRLPRPRPRPVMWPRP to RRIRPRPPRLPRPRPRPVNPPRP, the “shrunken log2 fold change” value falls from 0.385 to 0.0675.

First: RRIRPRPPRLPRPRPRPVQNPRP
Second: RRIRPRPPRLPRPRPRPVQQPRP
The “shrunken log2 fold change” value of the first is lower: -0.234 for the first, 0.378 for the second.

Compared with RRIRPRPPRLPRPRPRPVRIPRP, RRIRPRPPRLPRPRPRPVRLPRP is higher in “shrunken log2 fold change” value: 0.0103 for the first, 0.238 for the second.

Compared with RRIRPRPPRLPRPRPRPVRTPRP, RRIRPRPPRLPRPRPRPVSWPRP is higher in “shrunken log2 fold change” value: 0.385 for the first, 0.704 for the second.

Going from RRIRPRPPRLPRPRPRPVTVPRP to RRIRPRPPRLPRPRPRPVVAPRP, the “shrunken log2 fold change” value rises from -0.163 to 0.578.

RRIRPRPPRLPRPRPRPVVKPRP and RRIRPRPPRLPRPRPRPVVLPRP are within 0.2 log units of each other in “shrunken log2 fold change” value: -0.181 for the first, 0.00791 for the second.

RRIRPRPPRLPRPRPRPVWDPRP and RRIRPRPPRLPRPRPRPVWKPRP are within 0.2 log units of each other in “shrunken log2 fold change” value: 0.212 for the first, 0.218 for the second.

Compared with RRIRPRPPRLPRPRPRPVYCPRP, RRIRPRPPRLPRPRPRPVYDPRP is lower in “shrunken log2 fold change” value: -0.375 for the first, -0.711 for the second.

Compared with RRIRPRPPRLPRPRPRPVYNPRP, RRIRPRPPRLPRPRPRPWCHPRP is lower in “shrunken log2 fold change” value: 0.88 for the first, -0.563 for the second.

RRIRPRPPRLPRPRPRPWDDPRP and RRIRPRPPRLPRPRPRPWDGPRP are within 0.2 log units of each other in “shrunken log2 fold change” value: -0.144 for the first, -0.0681 for the second.

RRIRPRPPRLPRPRPRPWDPPRP was tested, and the “shrunken log2 fold change” value was -0.0945.
